Tests used:
Assay in all cases: SPR, KD relative to WT C2;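 further: biacore SPR at 37 °C, anti-C2 mAbs captured via immobilised goat anti-human IgG, C2 alanine or serine surface mutants as analytes, 1:1 model fitted, double-referenced sensograms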
human C2 Y702A = target: T1, human C2 Y702A (human, UniProt P06681 21-752)
T1 sequence: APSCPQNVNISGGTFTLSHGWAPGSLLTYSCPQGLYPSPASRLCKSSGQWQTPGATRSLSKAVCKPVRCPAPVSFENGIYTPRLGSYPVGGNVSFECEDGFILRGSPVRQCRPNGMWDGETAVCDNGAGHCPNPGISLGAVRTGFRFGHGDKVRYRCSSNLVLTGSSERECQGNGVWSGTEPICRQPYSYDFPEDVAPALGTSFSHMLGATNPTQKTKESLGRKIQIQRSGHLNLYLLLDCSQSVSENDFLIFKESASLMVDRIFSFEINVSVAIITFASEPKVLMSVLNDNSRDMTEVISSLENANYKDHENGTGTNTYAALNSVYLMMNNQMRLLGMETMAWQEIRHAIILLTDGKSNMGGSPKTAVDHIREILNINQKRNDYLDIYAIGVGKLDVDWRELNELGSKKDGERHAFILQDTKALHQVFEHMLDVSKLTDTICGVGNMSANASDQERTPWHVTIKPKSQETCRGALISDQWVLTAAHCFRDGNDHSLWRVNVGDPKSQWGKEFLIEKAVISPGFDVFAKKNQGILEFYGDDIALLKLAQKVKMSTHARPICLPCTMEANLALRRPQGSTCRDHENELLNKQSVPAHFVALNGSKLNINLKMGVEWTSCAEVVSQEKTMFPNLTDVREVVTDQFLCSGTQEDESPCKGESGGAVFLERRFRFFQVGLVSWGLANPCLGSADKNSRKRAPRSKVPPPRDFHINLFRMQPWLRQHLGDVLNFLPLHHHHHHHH

human C2 D282A = target: T2, human C2 D282A (human, UniProt P06681 21-752)
T2 sequence: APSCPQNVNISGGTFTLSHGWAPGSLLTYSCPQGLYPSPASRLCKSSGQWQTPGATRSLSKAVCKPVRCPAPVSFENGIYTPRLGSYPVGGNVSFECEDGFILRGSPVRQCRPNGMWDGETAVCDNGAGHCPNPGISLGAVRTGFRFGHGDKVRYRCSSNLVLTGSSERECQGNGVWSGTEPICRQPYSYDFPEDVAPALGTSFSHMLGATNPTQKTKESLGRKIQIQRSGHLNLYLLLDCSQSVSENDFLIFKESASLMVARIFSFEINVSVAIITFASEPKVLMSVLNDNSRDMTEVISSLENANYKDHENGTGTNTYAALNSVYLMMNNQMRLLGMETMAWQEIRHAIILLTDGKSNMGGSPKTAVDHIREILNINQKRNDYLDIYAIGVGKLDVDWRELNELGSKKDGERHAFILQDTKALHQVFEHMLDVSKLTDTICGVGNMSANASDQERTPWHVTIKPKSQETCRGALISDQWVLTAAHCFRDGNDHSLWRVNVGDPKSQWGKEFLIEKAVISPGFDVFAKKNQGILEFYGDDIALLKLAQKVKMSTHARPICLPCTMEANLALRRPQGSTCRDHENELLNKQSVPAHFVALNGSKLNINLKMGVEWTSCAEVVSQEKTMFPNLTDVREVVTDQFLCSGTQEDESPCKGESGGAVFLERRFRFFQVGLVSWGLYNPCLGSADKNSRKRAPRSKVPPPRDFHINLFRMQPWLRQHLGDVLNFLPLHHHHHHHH

human C2 D419A = target: T3, human C2 D419A (human, UniProt P06681 21-752)
T3 sequence: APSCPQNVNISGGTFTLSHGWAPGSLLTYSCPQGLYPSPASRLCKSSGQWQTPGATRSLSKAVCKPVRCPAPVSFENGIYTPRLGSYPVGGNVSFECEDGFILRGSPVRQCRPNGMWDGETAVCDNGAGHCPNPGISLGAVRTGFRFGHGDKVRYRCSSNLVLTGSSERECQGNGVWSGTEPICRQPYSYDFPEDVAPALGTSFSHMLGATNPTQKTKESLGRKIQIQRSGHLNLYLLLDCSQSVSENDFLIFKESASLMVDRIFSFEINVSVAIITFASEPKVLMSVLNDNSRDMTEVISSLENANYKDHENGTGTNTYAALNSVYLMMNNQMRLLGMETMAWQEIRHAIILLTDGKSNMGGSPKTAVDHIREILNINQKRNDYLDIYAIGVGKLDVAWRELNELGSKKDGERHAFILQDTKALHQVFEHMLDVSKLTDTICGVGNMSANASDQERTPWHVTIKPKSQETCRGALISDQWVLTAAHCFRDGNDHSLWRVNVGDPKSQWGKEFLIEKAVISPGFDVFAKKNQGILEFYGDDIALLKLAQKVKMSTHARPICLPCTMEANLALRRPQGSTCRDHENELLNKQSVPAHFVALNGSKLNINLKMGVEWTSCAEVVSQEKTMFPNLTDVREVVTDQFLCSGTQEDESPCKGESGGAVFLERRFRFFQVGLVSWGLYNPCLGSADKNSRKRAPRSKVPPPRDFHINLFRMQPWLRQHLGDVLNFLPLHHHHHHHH

human C2 S469A = target: T4, human C2 S469A (human, UniProt P06681 21-752)
T4 sequence: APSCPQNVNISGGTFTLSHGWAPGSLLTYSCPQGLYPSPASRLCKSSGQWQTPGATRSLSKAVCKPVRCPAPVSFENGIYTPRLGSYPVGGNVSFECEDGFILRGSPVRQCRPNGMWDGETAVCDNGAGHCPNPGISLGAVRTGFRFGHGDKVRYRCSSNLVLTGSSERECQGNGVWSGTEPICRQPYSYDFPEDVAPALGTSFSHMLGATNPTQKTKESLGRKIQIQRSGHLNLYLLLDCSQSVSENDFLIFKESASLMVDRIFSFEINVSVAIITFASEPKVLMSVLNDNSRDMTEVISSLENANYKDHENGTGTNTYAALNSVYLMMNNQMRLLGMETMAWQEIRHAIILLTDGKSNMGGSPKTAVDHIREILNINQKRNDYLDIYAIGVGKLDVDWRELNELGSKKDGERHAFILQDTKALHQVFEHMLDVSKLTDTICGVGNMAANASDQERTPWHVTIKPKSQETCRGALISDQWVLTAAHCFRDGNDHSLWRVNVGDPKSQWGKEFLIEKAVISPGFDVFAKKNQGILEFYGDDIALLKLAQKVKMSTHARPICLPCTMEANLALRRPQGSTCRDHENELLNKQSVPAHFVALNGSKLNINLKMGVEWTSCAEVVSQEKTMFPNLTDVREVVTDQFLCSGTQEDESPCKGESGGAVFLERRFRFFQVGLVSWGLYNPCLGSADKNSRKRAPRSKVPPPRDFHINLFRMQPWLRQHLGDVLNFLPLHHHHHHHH

B1: RF16-226 (antibody, human IgG4 S228P, lambda)
heavy: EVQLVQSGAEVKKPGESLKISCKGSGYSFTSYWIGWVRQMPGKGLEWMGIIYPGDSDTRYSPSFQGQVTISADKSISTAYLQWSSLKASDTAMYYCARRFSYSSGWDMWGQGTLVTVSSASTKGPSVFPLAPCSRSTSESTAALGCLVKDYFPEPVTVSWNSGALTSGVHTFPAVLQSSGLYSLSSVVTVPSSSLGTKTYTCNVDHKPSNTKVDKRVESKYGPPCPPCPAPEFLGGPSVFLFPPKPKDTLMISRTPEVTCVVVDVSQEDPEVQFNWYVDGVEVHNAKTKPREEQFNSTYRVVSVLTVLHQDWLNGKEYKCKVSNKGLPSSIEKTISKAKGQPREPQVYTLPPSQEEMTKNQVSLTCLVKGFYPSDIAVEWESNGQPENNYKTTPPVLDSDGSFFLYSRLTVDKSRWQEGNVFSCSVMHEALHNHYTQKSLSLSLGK
light: SYELTQPPSVSVSPGQTARITCSGDALTSKYVAWYQQKSGLAPLLVIYEDTRRPSGIPAKFSGSSSGSVATLTISGAHGDDEADYYCYSTDASGHQRVFGGGTKLTVLSQPKAAPSVTLFPPSSEELQANKATLVCLISDFYPGAVTVAWKADGSPVKAGVETTKPSKQSNNKYAASSYLSLTPEQWKSHRSYSCQVTHEGSTVEKTVAPTECS
notes: pH-dependent anti-C2 antibody from a phage display library; also called WT
Fold diff (human C2 Y702A): 11 fold
Fold diff (human C2 D282A): 1 fold
Fold diff (human C2 D419A): 2 fold
Fold diff (human C2 S469A): 3 fold

Reference: US20220332804A1 (CSL INNOVATION, published 2022)
